Source: publication PMC10397247
One block for each binder: values may come before it.

Experiments:
4H3606-bH = biological target: T1, 4H3606-bH; test: two-hybrid library CCNG1; settings: mean of both orientations;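 also: natural log of median RNA to DNA barcode read ratio; higher means stronger binding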
T1 chain: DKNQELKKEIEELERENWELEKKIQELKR

4H370-bH = biological target: T2, 4H370-bH; test: two-hybrid library CCNG1;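 also: natural log of median RNA to DNA barcode read ratio; higher means stronger binding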
T2 chain: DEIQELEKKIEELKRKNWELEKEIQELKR

4H3782-bH = biological target: T3, 4H3782-bH; test: two-hybrid library CCNG1;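 also: natural log of median RNA to DNA barcode read ratio; higher means stronger binding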
T3 chain: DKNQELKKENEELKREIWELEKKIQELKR

4H3843-bH = biological target: T4, 4H3843-bH; test: two-hybrid library CCNG1;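 also: natural log of median RNA to DNA barcode read ratio; higher means stronger binding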
T4 chain: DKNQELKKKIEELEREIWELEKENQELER

4H4001-bH = biological target: T5, 4H4001-bH; test: two-hybrid library CCNG1;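 also: natural log of median RNA to DNA barcode read ratio; higher means stronger binding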
T5 chain: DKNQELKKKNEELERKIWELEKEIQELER

4H462-bH = biological target: T6, 4H462-bH; test: two-hybrid library CCNG1;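 also: natural log of median RNA to DNA barcode read ratio; higher means stronger binding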
T6 chain: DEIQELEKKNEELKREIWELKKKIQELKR

4H568-bH = biological target: T7, 4H568-bH; test: two-hybrid library CCNG1
T7 chain: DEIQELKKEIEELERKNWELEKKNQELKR

4H607-bH = biological target: T8, 4H607-bH; test: two-hybrid library CCNG1
T8 chain: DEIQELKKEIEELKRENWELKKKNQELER

4H687-bH = biological target: T9, 4H687-bH; test: two-hybrid library CCNG1
T9 chain: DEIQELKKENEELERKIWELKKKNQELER

4H72-bH = biological target: T10, 4H72-bH; test: two-hybrid library CCNG1
T10 chain: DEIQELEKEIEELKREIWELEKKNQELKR

4H797-bH = biological target: T11, 4H797-bH; test: two-hybrid library CCNG1
T11 chain: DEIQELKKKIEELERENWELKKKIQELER

4H883-bH = biological target: T12, 4H883-bH; test: two-hybrid library CCNG1
T12 chain: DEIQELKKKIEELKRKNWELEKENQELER

4H918-bH = biological target: T13, 4H918-bH; test: two-hybrid library CCNG1
T13 chain: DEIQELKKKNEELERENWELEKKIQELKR

4H953-bH = biological target: T14, 4H953-bH; test: two-hybrid library CCNG1
T14 chain: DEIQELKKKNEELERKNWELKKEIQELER

4H967-bH = biological target: T15, 4H967-bH; test: two-hybrid library CCNG1
T15 chain: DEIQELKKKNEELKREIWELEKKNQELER

4H2343-AA = biological target: T16, 4H2343-AA; test: two-hybrid library CCmax
T16 chain: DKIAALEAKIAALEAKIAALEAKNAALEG

4H2466-AA = biological target: T17, 4H2466-AA; test: two-hybrid library CCmax; settings: mean of both orientations
T17 chain: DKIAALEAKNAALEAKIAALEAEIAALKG

4H249-AA = biological target: T18, 4H249-AA; test: two-hybrid library CCmax; settings: mean of both orientations
T18 chain: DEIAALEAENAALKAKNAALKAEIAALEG

4H2592-AA = biological target: T19, 4H2592-AA; test: two-hybrid library CCmax; settings: mean of both orientations
T19 chain: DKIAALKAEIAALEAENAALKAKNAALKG

4H2732-AA = biological target: T20, 4H2732-AA; test: two-hybrid library CCmax; settings: mean of both orientations
T20 chain: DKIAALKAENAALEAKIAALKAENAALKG

4H2774-AA = biological target: T21, 4H2774-AA; test: two-hybrid library CCmax; settings: mean of both orientations
T21 chain: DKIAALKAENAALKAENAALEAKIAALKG

4H2931-AA = biological target: T22, 4H2931-AA; test: two-hybrid library CCmax; settings: mean of both orientations
T22 chain: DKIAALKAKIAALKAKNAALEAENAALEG

4H3001-AA = biological target: T23, 4H3001-AA; test: two-hybrid library CCmax; settings: mean of both orientations
T23 chain: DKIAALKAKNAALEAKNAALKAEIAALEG

4H3015-AA = biological target: T24, 4H3015-AA; test: two-hybrid library CCmax; settings: mean of both orientations
T24 chain: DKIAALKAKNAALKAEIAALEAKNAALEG

4H3073-AA = biological target: T25, 4H3073-AA; test: two-hybrid library CCmax; settings: mean of both orientations
T25 chain: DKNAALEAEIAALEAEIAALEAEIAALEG

4H3438-AA = biological target: T26, 4H3438-AA; test: two-hybrid library CCmax; settings: mean of both orientations
T26 chain: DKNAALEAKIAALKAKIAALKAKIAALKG

4H347-AA = biological target: T27, 4H347-AA; test: two-hybrid library CCmax; settings: mean of both orientations
T27 chain: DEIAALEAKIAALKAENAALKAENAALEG

4H406-AA = biological target: T28, 4H406-AA; test: two-hybrid library CCmax; settings: mean of both orientations
T28 chain: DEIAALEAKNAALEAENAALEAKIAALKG

4H452-AA = biological target: T29, 4H452-AA; test: two-hybrid library CCmax; settings: mean of both orientations
T29 chain: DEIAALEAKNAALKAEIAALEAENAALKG

4H56-AA = biological target: T30, 4H56-AA; test: two-hybrid library CCmax; settings: mean of both orientations
T30 chain: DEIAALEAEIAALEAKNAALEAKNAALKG

4H_APH = biological target: T31, 4H_APH; test: two-hybrid library CCmax; settings: mean of both orientations
T31 chain: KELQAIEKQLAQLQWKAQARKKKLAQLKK

4H_BCR = biological target: T32, 4H_BCR; test: two-hybrid library CCmax; settings: mean of both orientations
T32 chain: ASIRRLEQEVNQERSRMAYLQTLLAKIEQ

4H_GCN4 = test: two-hybrid library CCmax; settings: mean of both orientations
GCN2_T = test: two-hybrid library CCmax

Sequence of 4H_GCN4 (chain, as listed by the source): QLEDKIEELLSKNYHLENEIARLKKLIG

interaction score (4H3606-bH): -0.593
interaction score (4H370-bH): 1.69
interaction score (4H3782-bH): -0.967
interaction score (4H3843-bH): 0.511
interaction score (4H4001-bH): 0.174
interaction score (4H462-bH): -0.116
interaction score (4H568-bH): 1.11
interaction score (4H607-bH): -0.729
interaction score (4H687-bH): -0.48
interaction score (4H72-bH): -0.306
interaction score (4H797-bH): -0.0905
interaction score (4H883-bH): 0.484
interaction score (4H918-bH): -0.633
interaction score (4H953-bH): -1.36
interaction score (4H967-bH): 1.21
Binder: DKNQELKKEIEELERENWELEKKIQELKR [4H3606-bH]

interaction score (4H2343-AA): 1.95
interaction score (4H2466-AA): -1.39
interaction score (4H249-AA): -1.75
interaction score (4H2592-AA): -1.2
interaction score (4H2732-AA): -1.84
interaction score (4H2774-AA): -1.54
interaction score (4H2931-AA): -1.61
interaction score (4H3001-AA): -1.8
interaction score (4H3015-AA): -1.83
interaction score (4H3073-AA): 0.404
interaction score (4H3438-AA): 0.393
interaction score (4H347-AA): -1.77
interaction score (4H406-AA): -1.85
interaction score (4H452-AA): -1.86
interaction score (4H56-AA): -1.45
interaction score (4H_APH): -1.88
interaction score (4H_BCR): -2.04
interaction score (4H_GCN4): -1.32
interaction score (GCN2_T): -2.25
Binder: DKIAALEAKIAALEAKIAALEAKNAALEG [4H2343-AA]
